Results from patent publication US20230218771A1, “SELF-ASSEMBLING PRODRUGS AS IMMUNE BOOSTERS FOR CANCER IMMUNOTHERAPY” (priority 2020, published 2023).
Where a SMILES comes first, the peptide text is derived from it. Bridges are numbered along the chain shown (N, C = ends). [ ]: non-standard residue; d: D form. The star is where a group is joined. ξ: configuration not given here. X1 = CC[C@@]1(OC(=O)OCCSSC[C@H](NC(C)=O)C(=O)*)C(=O)OCc2c1cc1n(c2=O)Cc2cc3ccccc3nc2-1; S(CH2)2OCO2(CPT-20-yl) = CC[C@@]1(OC(=O)OCCS*)C(=O)OCc2c1cc1n(c2=O)Cc2cc3ccccc3nc2-1; ξR = N=C(N)NCCCC(N)C(=O)O

Legend:
[1] = tested on: GL-261 tumors; assay: Tumor tissue penetration, fluorescence imaging of tumor sections (NT vs NT-Sham); format: in vivo, GL-261 tumor-bearing mice; conditions: day 3 after intratumoral injection
From the text: FIG. 39 is fluorescence imaging of tumor sections to specifically analyze the information from tumor areas of GL-261 tumor-bearing mice that intratumoral injected with NT-Sham (NTs formed from diCPT-iRGRD) or NT. The images were obtained on day 3 day after treatment. Blue: CPT (Excitation at 365 nm), Red: DRAQS™ stained nuclei, scale bar: 500 μm.

[2] = tested on: GL-261 cells; assay: Cytotoxicity assay (MTT or WST-1); format: cell-based; conditions: 48 h incubation
Method: GL-261 cells (2.5×10^3 cells/well) were incubated in a 96-well plate overnight. The cells were then treated with varying concentrations of CPT or diCPT-PLGLAG-iRGD or diCPT-iRGD solutions, with untreated cells used as a control. After 48 h incubation, cell viability was tested using an MTT or WST-1 assay. The percentage of cell viability was calculated as follows: Cell Viability (%)=A570sample/A570control×100%. IC50 values of the drug formulations were analyzed using Graph Pad Prism 5.

[3] = tested on: GL-261 tumor spheroids; assay: Inhibition of tumor spheroids; format: cell-based; conditions: CPT concentration of 5 μM
Method: GL-261 cells were seeded at a density of 1×10^4 cells/well into agarose coated 48-well plates. After the culture plates were incubated at 37° C. for 7 days, the spheroids were treated with free CPT, NT and P-NT at the CPT concentration of 5 μM. The tumor spheroids were photographed every two days. Growth inhibition was evaluated by measuring the size of the tumor spheroids. Volume of the tumor spheroids was calculated using the equation […], with dmax dmin representing the maximum and minimum diameter of the spheroid, respectively.

[4] = GSH responsive drug release of CPT prodrugs; format: in vitro ADME; conditions: presence of GSH, within 2 hours
Method: Briefly, 20 mM glutathione (GSH) and 400 μM diCPT-PLGLAG-iRGD or diCPT-iRGD stock solutions were prepared in water or PBS (pH 7.4). Equal volumes of GSH and diCPT-PLGLAG-iRGD or diCPT-iRGD solutions were then mixed to reach a final GSH concentration of 10 mM and the mixtures were incubated at 37° C. Samples were then taken at predetermined time points (0, 0.5, 1, 2, 4, 8, 12 and 24 h) and quantified using HPLC.

[5] = In vivo hydrogel formation and degradation after subcutaneous injection; design: species or system C57BL/6 mice; conditions: within 45 days
Method: 100 μl of 7.2 mM P-NT solution or diCPT-iRGD NT solution (5.75 mM, 100 μL) was injected into the back of C57BL/6 mice. The mice were then sacrificed at predetermined time points (1 hour, 5, 15, 30 and 45 days). The remaining hydrogel in each mouse was photographed and the amount of drug that persisted within the hydrogel was determined using HPLC.

[6] = Intratumoral retention of Cy7-labeled CDA (IVIS); format: in vivo, GL-261 tumor-bearing mice; conditions: intratumoral injection
Method: At predetermined time points, fluorescence images were recorded by an IVIS Spectrum imaging system (Perkin Elmer).

[7] = molecular target: diCPT-PLGLAG-iRGD

CC[C@@]1(OC(=O)OCCSSC[C@H](NC(C)=O)C(=O)NCCCC[C@H](NC(=O)[C@H](CSSCCOC(=O)O[C@]2(CC)C(=O)OCc3c2cc2n(c3=O)Cc3cc4ccccc4nc3-2)NC(C)=O)C(=O)N[C@H]2CSSC[C@@H](C(N)=O)NC(=O)[C@H](CC(=O)O)NC(=O)[C@@H]3CCCN3C(=O)CNC(=O)C(CCCNC(=N)N)NC(=O)[C@H](CC(=O)O)NC(=O)CNC(=O)[C@H](CCCNC(=N)N)NC2=O)C(=O)OCc2c1cc1n(c2=O)Cc2cc3ccccc3nc2-1 (stereo partly shown) [diCPT-iRGD] (Ac-C(S(CH2)2OCO2(CPT-20-yl))K(X1)CRGD[ξR]GPDC-NH2; disulfide 3-11)
CPT fluorescence at the tumor periphery [1]: distinct CPT fluorescence can be observed throughout the tumor and even at the tumor periphery
cytotoxicity against GL-261 brain tumor cells [2]: potent cytotoxicity
cytotoxicity against 3D tumor spheroids [3]: potent cytotoxicity
free CPT released [4]: ~100%
hydrogel degraded [5]: approximately 75%

Nc1ncnc2c1ncn2[C@@H]1O[C@@H]2COP(O)(=S)O[C@@H]3C(O)[C@@H](COP(O)(=S)O[C@H]2[C@H]1O)O[C@H]3n1cnc2c(N)ncnc21 (stereo partly shown) [free CDA, 2′3′-c-di-AM(PS)2 (Rp,Rp)]
CDA fluorescence signal in tumors [6]: virtually no fluorescence signal observed five days after injection

B1: Human MMP2 recombinant protein (protein)
chain: APSPIIKFPGDVAPKTDKELAVQYLNTFYGCPKESCNLFVLKDTLKKMQKFFGLPQTGDLDQNTIETMRKPRCGNPDVANYNFFPRKPKWDKNQITYRIIGYTPDLDPETVDDAFARAFQVWSDVTPLRFSRIHDGEADIMINFGRWEHGDGYPFDGKDGLLAHAFAPGTGVGGDSHFDDDELWTLGEGQVVRVKYGNADGEYCKFPFLFNGKEYNSCTDTGRSDGFLWCSTTYNFEKDGKYGFCPHEALFTMGGNAEGQPCKFPFRFQGTSYDSCTTEGRTDGYRWCGTTEDYDRDKKYGFCPETAMSTVGGNSEGAPCVFPFTFLGNKYESCTSAGRSDGKMWCATTANYDDDRKWGFCPDQGYSLFLVAAHEFGHAMGLEHSQDPGALMAPIYTYTKNFRLSQDDIKGIQELYGASPDIDLGTGPTPTLGPVTPEICKQDIVFDGIAQIRGEIFFFKDRFIWRTVTPRDKPMGPLLVATFWPELPEKIDAVYEAPQEEKAVFFAGNEYWIYSASTLERGYPKPLTSLGLPPDVQRVDAAFNWSKNKKTYIFAGDKFWRYNEVKKKMDPGFPKLIADAWNAIPDNLDAVVDLQGGGHSYFFKGAYYLKLENQSLKSVKFGSIKSDWLGC
degradation of diCPT-PLGLAG-iRGD by MMP-2 (HPLC, 200 uM conjugate, 2 ug/ml MMP-2, 37 C) [7]: 54% cleaved after 8 hours
